# Results as given in patent publication US20080026996A1, “Selective Vpac2 Receptor Reptide Agonists” (ELI LILLY AND COMPANY, priority 2004, published 2008).
# Where no end group is shown, it is not given here. [ ]: non-standard residue; d: D form. The star is where a group is joined. Hexanoyl = CCCCCC(=O)*; Aib = CC(C)(N)C(=O)O
# T1: human VPAC2 receptor (human, UniProt P41587 24-438)
# T1 sequence (looked up): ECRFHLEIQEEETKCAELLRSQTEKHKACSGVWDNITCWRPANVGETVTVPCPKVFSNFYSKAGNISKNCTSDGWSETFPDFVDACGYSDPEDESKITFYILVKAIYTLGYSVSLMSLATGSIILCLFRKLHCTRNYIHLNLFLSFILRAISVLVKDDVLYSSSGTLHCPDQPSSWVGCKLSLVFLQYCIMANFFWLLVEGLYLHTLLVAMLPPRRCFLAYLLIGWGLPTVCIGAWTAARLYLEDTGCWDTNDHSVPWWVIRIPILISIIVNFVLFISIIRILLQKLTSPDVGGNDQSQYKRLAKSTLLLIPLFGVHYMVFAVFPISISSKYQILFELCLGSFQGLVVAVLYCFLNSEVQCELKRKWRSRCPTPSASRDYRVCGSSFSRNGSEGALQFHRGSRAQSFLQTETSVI
# Biological target: T1, human VPAC2 receptor
# Test: cell-based or functional assay
Binder,"EC50 cAMP, Alpha Screen [nM]","EC50 cAMP, DiscoveRx [nM]"
MHSDAVFTDQYTRLRKQVAAKKYLQSIKQKRYGGPSSGAPPPS (N-terminal methionine added (M-)) [P100],0.28,–
IHSDAVFTDNYTRLRKQVAAKKYLQSIKNKRYGGPSSGAPPPS (N-terminal isoleucine added (I-)) [P105],8.33,–
Hexanoyl-HSDAVFTDNYTRLRKQVAAKKYLQS[Aib]KNKRYGGPSSGAPPPS (ends and bridges not checked) [P188],0.32,–
Hexanoyl-HSDAVFTDNYTRLRK(Ac)QVAAK(Ac)KYLQSIKNKRYGGPSSGAPPPS [P193],0.18,–
HSDAVFTDNYTREKEKVAAKKYLQSIKNKRYGGPSSGAPPPS [P87],> 10000,–
HSDAVFTDNYTRAAAKVAAKKYLQSIKNKRYGGPSSGAPPPS [P88],1720,> 1000
HSDAVFTDNYTRLLAKVAAKKYLQSIKNKRYGGPSSGAPPPS [P89],1.23,0.7
HSDAVFTDNYTRAKAKVAAKKYLQSIKNKRYGGPSSGAPPPS [P94],696,> 1000
Hexanoyl-HSDAVFTDNYTRLRRQVAARRYLQSIRNRRYGGPSSGAPPPS [P98],0.15,–
Hexanoyl-HVDAVFTDNYTRLRKQVAAKKYLQSIKNKRYGGPSSGAPPPS [P99],0.14,–
Hexanoyl-H[dA]DAVFTDNYTRLRKQVAAKKYLQSIKNKRYGGPSSGAPPPS [P101],0.21,–
HSDGVFTDNYTRLRKQVAAKKYLQSIKNKRYGGPSSGAPPPS [P102],27.4,–
Hexanoyl-HSDAVFTDNYTKLKKQVAAKKYLQSIKNKKYGGPSSGAPPPS [P103],0.12,–
Hexanoyl-HSDAVFTDNYTRLRKQVAAKKYLQSFKNKRYGGPSSGAPPPS [P106],0.16,–
Hexanoyl-HSDAVFTDNYTRLRKQVAAKKYLQSLKNKRYGGPSSGAPPPS [P107],0.12,–
Hexanoyl-HSDAVFTDNYTRLRKQVAAKKYLQSTKNKRYGGPSSGAPPPS [P108],0.27,–
Hexanoyl-HSDAVFTDNYTRLRKQVAAKKYLQSVKNKRYGGPSSGAPPPS [P109],0.22,–
Hexanoyl-HSDAVFTDNYTRLRKQVAAKKYLQSWKNKRYGGPSSGAPPPS [P110],0.13,–
Hexanoyl-HSDAVFTDNYTRLRKQVAAKKYLQSYKNKRYGGPSSGAPPPS [P111],0.34,–

Binder,"EC50 cAMP, Alpha Screen [nM]","EC50 cAMP, DiscoveRx [nM]"
Hexanoyl-HSDAVFTDNYTRLRKQVAAKKYLQFIKNKRYGGPSSGAPPPS [P112],0.16,–
Hexanoyl-HSDAVFTDNYTRLRKQVAAKKYLQIIKNKRYGGPSSGAPPPS [P113],0.26,–
Hexanoyl-HSDAVFTDNYTRLRKQVAAKKYLQLIKNKRYGGPSSGAPPPS [P114],0.14,–
Hexanoyl-HSDAVFTDNYTRLRKQVAAKKYLQVIKNKRYGGPSSGAPPPS [P116],0.12,–
Hexanoyl-HSDAVFTDNYTRLRKQVAAKKYLQWIKNKRYGGPSSGAPPPS [P117],0.2,–
Hexanoyl-HSDAVFTDNYTRLRKQVAAKKYLQQIKNKRYGGPSSGAPPPS [P124],0.09,–
Hexanoyl-HSDAVFTDNYTRLRKQVAAKKYLQNIKNKRYGGPSSGAPPPS [P125],0.14,–
Hexanoyl-HSDAVFTDNYTRLRKQVAAKKYLQYIKNKRYGGPSSGAPPPS [P127],0.22,–
Hexanoyl-HSDAVFTDNYTRLRKQVAAKKWLQSIKNKRYGGPSSGAPPPS [P129],0.49,–
Hexanoyl-HSDAVFTDNYTRLRKQVAAKKFLQSIKNKRYGGPSSGAPPPS [P130],0.77,–
Hexanoyl-HSDAVFTDNYTRLRKQVAAKKTLQSIKNKRYGGPSSGAPPPS [P131],22.3,–
Hexanoyl-HSDAVFTDNYTRLRKQVAAKKLLQSIKNKRYGGPSSGAPPPS [P132],3.1,–
Hexanoyl-HSDAVFTDNYTRLRKQVAAKKILQSIKNKRYGGPSSGAPPPS [P133],2.7,–
Hexanoyl-HSDAVFTDNYTRLRKQVAAKKVLQSIKNKRYGGPSSGAPPPS [P134],5.47,–
Hexanoyl-HSDAVFTDNYTRLRAQVAAQKYLQSIKNKRYGGPSSGAPPPS [P138],0.45,–
Hexanoyl-HSDAVFTDNYTRLRAQVAAKKYLQSIKNKRYGGPSSGAPPPS [P139],0.2,–
Hexanoyl-HSDAVFTDNYTRLKAQVAAKKYLQSIKNKRYGGPSSGAPPPS [P141],0.72,–
Hexanoyl-HSDAVFTDNYTRLRAQLAAQKYLQSIKNKRYGGPSSGAPPPS [P142],0.15,–
